Assay results reported in publication PMC6602146 (Molecules and Cells, 2019).

Target: the molecule itself
Assay: crystal structure

B1: α-carbonic anhydrase from Persephonella marina EX-H1 (enzyme, UniProt C0QRB5 20-243, looked up)
chain: GGGWSYHGEHGPEHWGDLKDEYIMCKIGKNQSPVDINRIVDAKLKPIKIEYRAGATKVLNNGHTIKVSYEPGSYIVVDGIKFELKQFHFHAPSEHKLKGQHYPFEAHFVHADKHGNLAVIGVFFKEGRENPILEKIWKVMPENAGEEVKLAHKINAEDLLPKDRDYYRYSGSLTTPPCSEGVRWIVMEEEMEMSKEQIEKFRKIMGGDTNRPVQPLNARMIMEK
stoichiometry N: 2
